According to US20040228849A1 (University of California, published 2004):

T1: Flag-IKKβ
T1 chain: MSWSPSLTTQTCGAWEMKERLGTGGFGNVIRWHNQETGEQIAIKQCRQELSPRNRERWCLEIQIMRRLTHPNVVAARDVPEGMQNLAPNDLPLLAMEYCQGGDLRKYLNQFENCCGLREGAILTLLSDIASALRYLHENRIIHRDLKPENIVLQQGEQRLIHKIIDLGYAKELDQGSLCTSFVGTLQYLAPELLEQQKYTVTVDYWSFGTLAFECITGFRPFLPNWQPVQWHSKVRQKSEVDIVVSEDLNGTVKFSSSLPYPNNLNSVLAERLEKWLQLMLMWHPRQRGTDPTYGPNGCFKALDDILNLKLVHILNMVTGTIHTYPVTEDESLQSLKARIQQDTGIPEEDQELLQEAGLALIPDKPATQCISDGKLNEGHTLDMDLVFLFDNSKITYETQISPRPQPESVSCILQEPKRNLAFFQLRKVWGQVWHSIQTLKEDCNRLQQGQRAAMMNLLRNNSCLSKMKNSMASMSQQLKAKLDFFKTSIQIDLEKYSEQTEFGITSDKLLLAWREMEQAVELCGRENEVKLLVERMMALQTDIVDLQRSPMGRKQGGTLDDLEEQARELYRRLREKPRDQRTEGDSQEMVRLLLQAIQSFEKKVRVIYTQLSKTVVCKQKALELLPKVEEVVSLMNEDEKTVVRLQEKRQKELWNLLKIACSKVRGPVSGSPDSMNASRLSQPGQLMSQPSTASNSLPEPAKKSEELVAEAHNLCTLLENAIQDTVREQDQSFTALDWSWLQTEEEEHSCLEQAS

T2: Flag-IKKβ (human, UniProt O14920 1-756)
T2 construct: Transiently coexpressed in 293 cells
T2 sequence: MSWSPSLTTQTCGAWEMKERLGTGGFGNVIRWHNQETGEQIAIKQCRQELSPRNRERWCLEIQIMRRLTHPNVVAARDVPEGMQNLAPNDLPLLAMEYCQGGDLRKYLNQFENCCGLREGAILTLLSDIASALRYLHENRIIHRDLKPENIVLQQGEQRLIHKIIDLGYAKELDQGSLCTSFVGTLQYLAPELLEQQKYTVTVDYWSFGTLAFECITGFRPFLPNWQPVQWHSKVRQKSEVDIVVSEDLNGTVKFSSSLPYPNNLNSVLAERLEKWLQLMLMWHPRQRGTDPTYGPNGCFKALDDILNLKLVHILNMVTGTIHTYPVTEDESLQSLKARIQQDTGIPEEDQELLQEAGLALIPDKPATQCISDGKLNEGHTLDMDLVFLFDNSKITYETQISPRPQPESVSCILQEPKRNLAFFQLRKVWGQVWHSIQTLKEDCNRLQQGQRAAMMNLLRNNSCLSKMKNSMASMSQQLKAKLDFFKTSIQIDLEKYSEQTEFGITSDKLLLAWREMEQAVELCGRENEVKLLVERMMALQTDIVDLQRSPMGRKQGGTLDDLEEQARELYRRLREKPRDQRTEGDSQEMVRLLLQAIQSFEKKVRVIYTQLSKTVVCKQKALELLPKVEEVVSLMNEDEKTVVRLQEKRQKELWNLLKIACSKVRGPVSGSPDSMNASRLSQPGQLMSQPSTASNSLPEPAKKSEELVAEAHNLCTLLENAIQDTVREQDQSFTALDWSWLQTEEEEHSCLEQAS

T3: IKKβ (full length human IKKβ subunit) (human, UniProt O14920 1-756)
T3 construct: Endogenous protein of HeLa cells; also called endogenous IKKβ; 87 kDa protein
T3 sequence: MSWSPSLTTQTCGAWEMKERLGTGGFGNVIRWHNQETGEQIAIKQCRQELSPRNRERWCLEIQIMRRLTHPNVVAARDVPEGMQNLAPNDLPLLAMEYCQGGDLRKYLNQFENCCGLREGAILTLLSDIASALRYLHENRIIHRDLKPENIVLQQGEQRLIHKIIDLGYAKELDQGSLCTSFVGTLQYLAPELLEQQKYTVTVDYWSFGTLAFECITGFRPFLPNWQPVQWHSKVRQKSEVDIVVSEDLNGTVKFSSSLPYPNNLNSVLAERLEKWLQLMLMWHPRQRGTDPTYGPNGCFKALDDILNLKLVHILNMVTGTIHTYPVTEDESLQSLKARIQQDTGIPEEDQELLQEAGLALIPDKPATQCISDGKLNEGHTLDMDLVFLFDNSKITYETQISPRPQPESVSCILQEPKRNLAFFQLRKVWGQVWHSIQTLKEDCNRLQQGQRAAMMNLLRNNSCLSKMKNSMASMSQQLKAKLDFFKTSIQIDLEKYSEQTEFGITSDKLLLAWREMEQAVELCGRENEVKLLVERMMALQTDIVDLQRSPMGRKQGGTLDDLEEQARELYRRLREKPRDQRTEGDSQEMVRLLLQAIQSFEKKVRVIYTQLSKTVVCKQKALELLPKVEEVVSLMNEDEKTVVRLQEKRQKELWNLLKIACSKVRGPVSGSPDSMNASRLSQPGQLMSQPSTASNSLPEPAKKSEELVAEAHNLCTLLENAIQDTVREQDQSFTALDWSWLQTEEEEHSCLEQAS


Tests used:
Flag-IKKβ [1] = target: T1, Flag-IKKβ
Flag-IKKβ [2] = target: T2, Flag-IKKβ; test: coimmunoprecipitation from transfected 293 cells: anti-HA immune complexes probed with anti-Flag(M2)
[3] = target: the molecule itself; test: immunoprecipitation experiments, transfected mammalian cells
[4] = target: T3, IKKβ (full length human IKKβ subunit); test: as above

binding result (Flag-IKKβ [2]) | binding result [4] | Binder | IKK activity isolated by immunoprecipitation with anti-HA (IκB kinase activity) (Flag-IKKβ [1]) | binding result [3]
no binding | – | HA-IKKα(LZ)^- (enzyme, not shown: small tags and cut ends, Leucine zipper mutant of IKKα; also called IKKα(LZ)^- mutant; IKKα LZ^- mutant) MERPPGLRPGAGGPWEMRERLGTGGFGNVCLYQHRELDLKIAIKSCRLELSTKNRERWCHEIQIMKKLNHANVVKACDVPEELNILIHDVPLLAMEYCSGGDLRKLLNKPENCCGLKESQILSLLSDIGSGIRYLHENKIIHRDLKPENIVLQDVGGKIIHKIIDLGYAKDVDQGSLCTSFVGTLQYLAPELFENKPYTATVDYWSFGTMVFECIAGYRPFLHHLQPFTWHEKIKKKDPKCIFACEEMSGEVRFSSHLPQPNSLCSLIVEPMENWLQLMLNWDPQQRGGPVDLTLKQPRCFVLMDHILNLKIVHILNMTSAKIISFLLPPDESLHSLQSRIERETGINTGSQELLSETGISLDPRKPASQCVLDGVRGCDSYMVYLFDKSKTVYEGPFASRSLSDCVNYIVQDSKIQLPIIQLRKVWAEAVHYVSGLKEDYSRLFQGQRAAMLSLLRYNANSTKMKNTSISASQQLKAKLEFFHKSIQLDLERYSEQMTYGISSEKMLKAWKEMEEKAIHYAEVGVIGYLEDQIMSLHAEIMELQKSPYGRRQGDLMESLEQRAIDLYKQLKHRPSDHSYSDSTEMVKIIVHTVQSQDRVLKERFGHLSKLLGCKQKIIDLLPKVEVALSNIKEADNTVMFMQGKRQKEIWHLLKIACTQSSARSLVGSSLEGAVTPQAYAWLAPDLAEHDHSLSCVVTPQDGETSAQMIEENLNCLGHLSTIIHEANEEQGNSMMNLDWSWLTE | had no effect on the very low activity that coprecipitated with HA-IKKα(LZ)^- | –
– | binds | IKKα (full length human IKKα subunit) (enzyme, Endogenous protein of HeLa or 293 cells; also called endogenous IKKα; 85 kDa protein) MERPPGLRPGAGGPWEMRERLGTGGFGNVCLYQHRELDLKIAIKSCRLELSTKNRERWCHEIQIMKKLNHANVVKACDVPEELNILIHDVPLLAMEYCSGGDLRKLLNKPENCCGLKESQILSLLSDIGSGIRYLHENKIIHRDLKPENIVLQDVGGKIIHKIIDLGYAKDVDQGSLCTSFVGTLQYLAPELFENKPYTATVDYWSFGTMVFECIAGYRPFLHHLQPFTWHEKIKKKDPKCIFACEEMSGEVRFSSHLPQPNSLCSLIVEPMENWLQLMLNWDPQQRGGPVDLTLKQPRCFVLMDHILNLKIVHILNMTSAKIISFLLPPDESLHSLQSRIERETGINTGSQELLSETGISLDPRKPASQCVLDGVRGCDSYMVYLFDKSKTVYEGPFASRSLSDCVNYIVQDSKIQLPIIQLRKVWAEAVHYVSGLKEDYSRLFQGQRAAMLSLLRYNANLTKMKNTLISASQQLKAKLEFFHKSIQLDLERYSEQMTYGISSEKMLKAWKEMEEKAIHYAEVGVIGYLEDQIMSLHAEIMELQKSPYGRRQGDLMESLEQRAIDLYKQLKHRPSDHSYSDSTEMVKIIVHTVQSQDRVLKERFGHLSKLLGCKQKIIDLLPKVEVALSNIKEADNTVMFMQGKRQKEIWHLLKIACTQSSARSLVGSSLEGAVTPQAYAWLAPDLAEHDHSLSCVVTPQDGETSAQMIEENLNCLGHLSTIIHEANEEQGNSMMNLDWSWLTE | – | binds
